Results on 1 molecule are retold here after patent US20100166746A1 (published 2010).

This assay concerns the target T1, human EphA2 antigen (human, UniProt P29317 24-534, limits assumed).
T1 construct: also called human EphA2 tumor antigen
Nature of the assay: kinetic parameters, ratio to G5 reference.

T1 sequence (P29317 24-534 limits assumed): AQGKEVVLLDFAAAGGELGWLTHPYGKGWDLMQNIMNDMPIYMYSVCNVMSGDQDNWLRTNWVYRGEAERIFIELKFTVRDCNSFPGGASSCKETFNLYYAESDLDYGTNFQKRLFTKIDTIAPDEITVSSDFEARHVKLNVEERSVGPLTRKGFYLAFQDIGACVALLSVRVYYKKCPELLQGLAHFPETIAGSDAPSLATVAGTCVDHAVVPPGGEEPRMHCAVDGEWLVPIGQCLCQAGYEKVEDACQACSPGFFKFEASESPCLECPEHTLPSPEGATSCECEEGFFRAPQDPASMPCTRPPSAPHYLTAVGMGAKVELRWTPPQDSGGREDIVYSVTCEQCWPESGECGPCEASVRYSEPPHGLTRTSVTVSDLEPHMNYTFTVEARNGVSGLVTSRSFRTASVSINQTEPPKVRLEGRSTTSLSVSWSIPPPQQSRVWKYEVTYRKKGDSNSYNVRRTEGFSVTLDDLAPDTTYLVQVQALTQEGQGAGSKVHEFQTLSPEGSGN

B1: 3F2 anti-EphA2 antibody (antibody, V domains shown)
VH: EVQLVESGGGVVRPGGSLRLSCAASGFTVSDYSMNWVRQAPGKGLEWIGFIRNKANAYTTEYSASVKGRFTISRDDSKNTLYLQMNSLKTEDTAVYYCTTYPRYHAMDSWGQGTMVTVSS
VL: AIQLTQSPSSLSASVGDRVTITCRASQSISNNLHWYLQKPGQSPQLLIYYGFQSISGVPSRFSGSGSGTDFTLTISSLQPEDFATYYCQQANSWPLTFGGGTKLEIK
For B1, the “fold faster Koff as compared to G5” value was ~3 fold and the “fold faster Kon as compared to G5” value was ~3.5 fold.
